{"source": "patent US20210319279A1", "molecular_target": "SBE FLAG9 (three 3xFLAG domains joined by rigid linkers) displayed on the yeast cell wall as a fusion to truncated FLO11 (S. cerevisiae) (UniProt P08640)", "sequence (P08640 other isoform, or with tags, fused parts or gaps limits assumed)": "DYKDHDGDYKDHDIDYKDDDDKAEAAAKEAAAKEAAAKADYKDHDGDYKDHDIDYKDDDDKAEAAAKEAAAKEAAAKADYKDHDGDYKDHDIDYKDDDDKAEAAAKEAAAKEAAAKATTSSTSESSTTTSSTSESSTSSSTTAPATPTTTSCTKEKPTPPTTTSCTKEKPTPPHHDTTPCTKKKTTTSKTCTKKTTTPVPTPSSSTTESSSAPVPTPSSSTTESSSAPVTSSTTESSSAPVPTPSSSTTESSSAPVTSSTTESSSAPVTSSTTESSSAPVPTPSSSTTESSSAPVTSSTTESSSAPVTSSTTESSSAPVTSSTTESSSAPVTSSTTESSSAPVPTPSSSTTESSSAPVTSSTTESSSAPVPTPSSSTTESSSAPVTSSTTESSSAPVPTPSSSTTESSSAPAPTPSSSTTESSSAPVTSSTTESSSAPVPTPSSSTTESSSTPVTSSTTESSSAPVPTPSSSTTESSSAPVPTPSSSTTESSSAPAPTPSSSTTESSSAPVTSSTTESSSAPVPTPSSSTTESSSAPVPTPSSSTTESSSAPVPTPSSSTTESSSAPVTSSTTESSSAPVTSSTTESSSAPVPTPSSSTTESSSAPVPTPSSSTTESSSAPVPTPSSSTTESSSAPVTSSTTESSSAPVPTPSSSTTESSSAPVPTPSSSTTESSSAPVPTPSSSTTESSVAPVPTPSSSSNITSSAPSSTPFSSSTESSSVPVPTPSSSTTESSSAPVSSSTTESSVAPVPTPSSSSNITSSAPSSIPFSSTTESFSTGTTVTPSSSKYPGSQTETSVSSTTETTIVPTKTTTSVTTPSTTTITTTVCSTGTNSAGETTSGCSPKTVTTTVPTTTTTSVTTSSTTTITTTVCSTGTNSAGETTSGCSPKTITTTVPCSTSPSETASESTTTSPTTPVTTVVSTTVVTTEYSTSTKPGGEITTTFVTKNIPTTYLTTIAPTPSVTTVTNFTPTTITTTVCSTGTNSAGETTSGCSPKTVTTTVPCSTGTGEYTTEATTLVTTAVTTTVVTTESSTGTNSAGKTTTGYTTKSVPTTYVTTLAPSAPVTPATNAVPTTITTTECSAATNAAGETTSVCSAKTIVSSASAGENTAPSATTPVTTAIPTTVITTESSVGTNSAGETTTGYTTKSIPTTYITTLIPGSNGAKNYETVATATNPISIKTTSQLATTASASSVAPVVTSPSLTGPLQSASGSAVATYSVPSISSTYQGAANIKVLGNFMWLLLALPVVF", "experiment": "cell-based or functional assay", "data": [{"substance": "anti-FLAG M2 antibody (A2220 Sigma-Aldrich), covalently linked to agarose beads", "values": [{"measurement": "beta-lactamase reporter (nitrocefin-BLA analysis), fold-change against the negative control without beads; PIC assay with sX406, sX216 and regulatory sX437", "value": 2, "unit": "fold"}, {"measurement": "beta-lactamase reporter, fold-change against the negative control; OR operation, Experiment A (BaF beads only)", "value": "3 to 4", "unit": "fold"}, {"measurement": "nitrocefin hydrolysis readout (image intensity), fold-increase against negative controls at 6 hrs; PIC assay with immobilization, strains sX384 and sX387, BaF beads", "value": "6 to 10", "unit": "fold"}]}]}
